The values that follow come from US20260103541A1 (UNIVERSIT T Z RICH, published 2026).

Positions count from the first letter of the chain named.

B1: DARPin #23 (designed binder)
chain: DLGKKLLEAARYGQDDEVRILMANGADVNAEDQHGHTPLHLAAFSGHLEIVEVLLKTGADVNANDINGVTPLHLAANVGHLEIVEVLLKHGADVNAQDKFGKTPFDLAAYLGNEDIAEVLQ
notes: also called designed ankyrin repeat domain #23; not shown: N terminal His6 tag; C terminal FLAG tag
B2: DARPin #20 (designed binder)
chain: DLGKKLLEAARAGQDDEVRILMANGADVNAVDYQGRTPLHLAAQYGHLEIVEVLLKTGADVNAQDHHGITPLHLAAFWGHLEIVEVLLKAGADVNAKDDQGNTPLHLAAWRGHLEIVEVLLKHGADVNAQDKFGKTPFDLAIDNGNEDIAEVLQ
notes: also called designed ankyrin repeat domain #20; not shown: N terminal His6 tag; C terminal FLAG tag
B3: DARPin #25 (designed binder)
chain: DLGKKLLEAARAGQDDEVRILMANGADVNATDWQGSTPLHLAAQHGHLEIVEVLLKTGADVNAEDQNGITPLHLAAYWGHLEIVEVLLKAGADVNAVDRQGNTPLHLAAVWGHLEIVEVLLKHGADVNAQDKFGKTPFDLAIDNGNEDIAEVLQ
notes: also called designed ankyrin repeat domain #25; not shown: N terminal His6 tag; C terminal FLAG tag
B4: DARPin #3 (designed binder)
chain: DLGKKLLEAARAGQDDEVRILMANGADVNAQDMTGKTPLHLAAREGHLEIVEVLLKTGADVNAKDLWGVTPLHLAAFSGHLEIVEVLLKTGADVNAWDWEGKTPLHLAAVKGHPEIVEVLLKHGADVNAQDKFGKTPFDLAIDNGNEDIAEVLQ
notes: also called designed ankyrin repeat domain #3; not shown: N terminal His6 tag; C terminal FLAG tag
B5: DARPin #11 (designed binder)
chain: DLVKKLLEAARAGQDDEVRILMANGADVNANDHFGITPLHLTAWWGHLEIVEVLLKAGADVNAVDHWGTTPLHLAAHQGHLEIVEVLLKHGADVNAQDKFGKTAFDISIDNGNEDIAEVLQ
notes: also called designed ankyrin repeat domain #11; not shown: N terminal His6 tag; C terminal FLAG tag
B6: DARPin #13 (designed binder)
chain: DLGKKLLEAARAGQDDEVRILMANGADVNATDQHGRTPLHLAAHTGHLEIVEVLLKTGADVNAQDHQGITPLHLAAFKGHLEIVEVLLKTGADVNAQDNWGYTPLHLAAARGHLEIVEVLLKAGADVNAQDKFGKTPFDLAIDNGNEDIAEVLQ
notes: also called designed ankyrin repeat domain #13; not shown: N terminal His6 tag; C terminal FLAG tag
B7: DARPin #15 (designed binder)
chain: DLGKKLLEAARAGQDDEVRILMANGADVNAMDMWGITPLHLAAWAGHLEIVEVLLKTGADVNAFDQHGNTPLHLAAYRGHLEIVEVLLKTGADVNAHDNWGTTPLHLTAHNGHLEIVEVLLKAGADVNAQDKFGKTPFDLAIDNGNEDIAEVLQ
notes: also called designed ankyrin repeat domain #15; not shown: N terminal His6 tag; C terminal FLAG tag
B8: DARPin #17 (designed binder)
chain: DLGKKLLEAARAGQDDEVRILMANGADVNAADNYGITPLHLAAYRGHLEIVEVLLKTGADVNAHDNVGNTPLHLAAAKGHLEIVEVLLKAGADVNADDVQGVTPLHLAASQGHLEIVEVLLKHGADVNAQDKFGKTPFDLAIDNGNEDIAEVLQ
notes: also called designed ankyrin repeat domain #17; not shown: N terminal His6 tag; C terminal FLAG tag
B9: DARPin #10 (designed binder)
chain: DLGKKLLEAARAGQDDEVRILMANGADVNAADDQGRTPLHLAAMHGHLEIVEVLLKTGADVNANDWFGITPLHLAAWWGHLEIVEVLLKAGADVNAVDHSGDTPLHLAAHLGHLEIVEVLLKHGADVNAQDKFGKTPFDLAIDNGNEDIAEVLQ
notes: also called designed ankyrin repeat domain #10; not shown: N terminal His6 tag; C terminal FLAG tag
B10: DARPin #21 (designed binder)
chain: DLGKKLLEAAELGQLDEVRILMANGADVNAMDQHGITPLHLAAWHGHLEIVEVLLKTGADVNAKDQDGSTPLHLAAYLGHLEIVEVLLKTGADVNAFDKFGNTPLHLAAHRGHLEIVEVLLKHGADVNAQDKFGKTPFDLAIDNGNEDIAEVLQ
notes: also called designed ankyrin repeat domain #21; not shown: N terminal His6 tag; C terminal FLAG tag
B11: DARPin #22 (designed binder)
chain: DLGKKLLEAARAGQDDEVRILMANGADVNASDWWGITPLHLAAYWGHLEIVEVLLKTGADVNAQDNQGITPLHLAATLGHLEIVEVLLKHGADVNAQDKFGKTPFDLAIDNGNEDIAEVLQ
notes: also called designed ankyrin repeat domain #22; not shown: N terminal His6 tag; C terminal FLAG tag
B12: DARPin #12 (designed binder)
chain: DLGKKLLEAARAGQDDEVRILMANGADVNAQDQRGRTPLHLAAAWGHLEIVEVLLKTGADVNAADDMGHTPLHLAAAFGHLEIVEVLLKHGADVNAQDKFGKTPFDLAIDNGNEDIAEVLQ
notes: also called designed ankyrin repeat domain #12; not shown: N terminal His6 tag; C terminal FLAG tag
B13: DARPin #24 (designed binder)
chain: B11 chain with S31I, W33V, W34H, T57A, Q64E, N66E, Q67S, I69H, T77H, L78W
notes: also called designed ankyrin repeat domain #24; not shown: N terminal His6 tag; C terminal FLAG tag
B14: DARPin #16 (designed binder)
chain: DLGKKLLEAARAGQDDEVRILMANGADVNAKDRYGITPLHLAAYWGHLEIVEVLLKAGSDVNALDYHGSTPLHLAAWFGHLEIVEVLLKHGADVNAQDKFGKTPFDLAIDNGNEDIAEVLQ
notes: also called designed ankyrin repeat domain #16; not shown: N terminal His6 tag; C terminal FLAG tag
B15: DARPin #26 (designed binder)
chain: B11 chain with S31I, Y44L, W45F, Q64E, N66R, Q67L, I69F, L78T, H90A
notes: also called designed ankyrin repeat domain #26; not shown: N terminal His6 tag; C terminal FLAG tag
B16: DARPin #8 (designed binder)
chain: DLGKKLLEAARAGQDDEVRILMANGADVNAADEYGITPLHLAAFFGHLEIVEVLLKTGADVNADDAWGSTPLHLAAYKGHLEIVEVLLKHGADVNAQDKFGKTPFDLAIDNGNEDIAEVLQ
notes: also called designed ankyrin repeat domain #8; not shown: N terminal His6 tag; C terminal FLAG tag
B17: DARPin #5 (designed binder)
chain: DLGKKLLEAARAGQDDEVRILMANGADVNAEDHVGRTPLHLAAAHGHLEIVEVLLKTGADVNARDRHGITPLHLAAWSGHLEIVEVLLKTGADVNASDKQGNTPLHLAAYRGHLEIVEVLLEAGADVNAQDKFGKTPFDLAIDNGNEDIAEVLQ
notes: also called designed ankyrin repeat domain #5; not shown: N terminal His6 tag; C terminal FLAG tag
B18: DARPin #4 (designed binder)
chain: DLGKKLLDAASVGQDDEVRILMANGADVNASDTYGRTPLHVAAQHGHLEIVDVLLAHGADVNASNAYGSTPLHVAAWTGHLEIVDVLLAYGADVNASNSQGNTPLHAAAATGHLEIVEVLLKHGADVNAQDKFGKTPFDLAIDNGNEDIAEVLQ
notes: also called designed ankyrin repeat domain #4; not shown: N terminal His6 tag; C terminal FLAG tag
B19: DARPin #1 (designed binder)
chain: DLGKKLLDAARAGQDDEVRILMANGADVNAMDVWGVTPLHLAAWHRHLEIVEVLLKTGADVNANDDSGFTPLHLAAHWGHLEIVEVLLKHGADVNAQDKFGKTPFDLAIDNGNEDIAEVLQ
notes: also called designed ankyrin repeat domain #1; not shown: N terminal His6 tag; C terminal FLAG tag

The target of the experiment is T1, human FAP (fibroblast activation protein) on HT1080hFAP cells (human, UniProt Q12884 1-760).
T1 construct: also called seprase
T1 sequence: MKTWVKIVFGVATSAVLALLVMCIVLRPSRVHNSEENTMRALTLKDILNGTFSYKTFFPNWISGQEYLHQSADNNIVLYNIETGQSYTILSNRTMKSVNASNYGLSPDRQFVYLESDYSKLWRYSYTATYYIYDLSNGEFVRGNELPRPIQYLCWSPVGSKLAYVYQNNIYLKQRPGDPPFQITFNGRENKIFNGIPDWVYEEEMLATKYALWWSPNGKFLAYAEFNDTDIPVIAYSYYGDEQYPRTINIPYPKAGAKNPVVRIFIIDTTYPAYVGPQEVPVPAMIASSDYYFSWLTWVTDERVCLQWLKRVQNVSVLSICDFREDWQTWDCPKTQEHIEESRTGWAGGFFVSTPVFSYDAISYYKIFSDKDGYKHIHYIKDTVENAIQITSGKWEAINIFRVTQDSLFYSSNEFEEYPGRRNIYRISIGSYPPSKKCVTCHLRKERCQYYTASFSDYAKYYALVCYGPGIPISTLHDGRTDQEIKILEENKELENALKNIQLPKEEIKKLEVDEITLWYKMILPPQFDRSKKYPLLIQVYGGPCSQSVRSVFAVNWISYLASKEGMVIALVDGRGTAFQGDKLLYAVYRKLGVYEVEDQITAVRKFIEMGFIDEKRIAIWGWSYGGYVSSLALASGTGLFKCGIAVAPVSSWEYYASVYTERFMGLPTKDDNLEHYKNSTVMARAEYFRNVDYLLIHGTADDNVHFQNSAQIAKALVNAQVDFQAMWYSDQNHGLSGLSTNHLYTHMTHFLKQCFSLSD
The experiment in a line: flow cytometry cell-based binding assay, HT1080hFAP against FAP-negative HT1080 cells. On the technique in general: A flow cytometer gives signals particle by particle.
With B1, the binding result was “binds”. For the molecule B2, the binding result is on record as “binds”.

As to B3, the binding result is “binds”. Next, B4: “binds”; B5: “binds”; B6: “binds”. Take B7: the binding result is “binds”.

On to B8, for which the binding result is “binds”. Turning to B9, the binding result is “binds”. Consider B10, for which the binding result is “binds”. For the molecule B11, the binding result was “binds”. Next, B12: “binds”; B13: “binds”. Turning to B14, the binding result is listed as “binds”. As for B15, the binding result was “binds”.

As to B16, the binding result was “binds”. For B17, the binding result is reported as “binds”. With B18, the binding result is listed as “binds”. In the case of B19, the binding result is reported as “binds”.
